T1: cynomolgus IL-17A (cynomolgus, UniProt Q16552 24-155 (human entry), limits assumed)
T1 chain: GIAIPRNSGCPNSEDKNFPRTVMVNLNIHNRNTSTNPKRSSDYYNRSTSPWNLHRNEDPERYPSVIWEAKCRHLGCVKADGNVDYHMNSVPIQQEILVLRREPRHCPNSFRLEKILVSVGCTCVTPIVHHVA


Assays:
cynomolgus IL-17A [1] = molecular target: T1, cynomolgus IL-17A; experiment: cell-based or functional assay
[2] = molecular target: T2, human IL-17A (recombinant) (human, UniProt Q16552 24-155); experiment: competition ELISA: biotinylated rhIL-17A binding to plate-coated rhIL-17RA-Fc; Experiment 1; 95% CI 0.03759-0.04316
T2 construct: Biotinylated in the IL-17RA ELISA; also called rhIL-17A

[3] = molecular target: T3, recombinant human IL-17A/F heterodimer (human, UniProt Q16552 24-155; Q96PD4 31-163); experiment: cell-based or functional assay
cynomolgus IL-17A [4] = molecular target: T1, cynomolgus IL-17A; experiment: cell-based or functional assay
[5] = molecular target: T2, human IL-17A (recombinant); experiment: competition ELISA: biotinylated rhIL-17A binding to plate-coated rhIL-17RA-Fc; Experiment 2; 95% CI 0.04003-0.04542
[6] = molecular target: T2, human IL-17A (recombinant); experiment: competition ELISA: biotinylated rhIL-17A binding to plate-coated rhIL-17RA-Fc; Experiment 3; 95% CI 0.07179-0.08047
[7] = molecular target: T2, human IL-17A (recombinant); experiment: cell-based or functional assay
[8] = molecular target: T3, recombinant human IL-17A/F heterodimer; experiment: cell-based or functional assay; remark: listed apart in the source
[9] = molecular target: T2, human IL-17A (recombinant); experiment: cell-based or functional assay; remark: listed apart in the source
[10] = molecular target: T2, human IL-17A (recombinant); experiment: cell-based or functional assay; remark: listed apart in the source
[11] = molecular target: T2, human IL-17A (recombinant); experiment: cell-based or functional assay; remark: listed apart in the source
[12] = molecular target: T2, human IL-17A (recombinant); experiment: competition ELISA: biotinylated rhIL-17A binding to plate-coated rhIL-17RA-Fc; Experiment 3; 95% CI 0.06727-0.07636
[13] = molecular target: T2, human IL-17A (recombinant); experiment: competition ELISA: biotinylated rhIL-17A binding to plate-coated rhIL-17RA-Fc; Experiment 1; 95% CI 0.03924-0.04274
[14] = molecular target: T2, human IL-17A (recombinant); experiment: competition ELISA: biotinylated rhIL-17A binding to plate-coated rhIL-17RA-Fc; Experiment 2; 95% CI 0.02829-0.03326

IC50 (µg/mL); Inhibition of cyno IL-17A mediated GROα production by NHDF; Experiment 3 (cynomolgus IL-17A [1]) [µg/mL]	IC50 (µg/mL); Inhibition of IL-17A/F mediated GROα production by NHDF; Experiment 1 [3] [µg/mL]	IC50 (µg/mL); Inhibition of IL-17A/F mediated GROα production by NHDF; Experiment 2 [3] [µg/mL]	IC50 (µg/mL); Inhibition of IL-17A/F mediated GROα production by NHDF; Experiment 3 [3] [µg/mL]	IC50 (µg/mL); Inhibition of cyno IL-17A mediated IL-6 production by NHDF; Experiment 3 (cynomolgus IL-17A [4]) [µg/mL]	IC50 (µg/mL); Inhibition of native IL-17A mediated GROα production by NHDF; Experiment 1 [7] [µg/mL]	IC50 (µg/mL); Inhibition of native IL-17A mediated GROα production by NHDF; Experiment 2 [7] [µg/mL]	IC50 (µg/mL); Inhibition of native IL-17A mediated GROα production by NHDF; Experiment 3 [7] [µg/mL]	IC50 (µg/mL); Inhibition of IL-17A/F mediated IL-6 production by NHDF; Experiment 1 [8] [µg/mL]	IC50 (µg/mL); Inhibition of IL-17A/F mediated IL-6 production by NHDF; Experiment 2 [8] [µg/mL]	IC50 (µg/mL); Inhibition of IL-17A/F mediated IL-6 production by NHDF; Experiment 3 [8] [µg/mL]	IC50 (µg/mL); Inhibition of native IL-17A mediated IL-6 production by NHDF; Experiment 1 [10] [µg/mL]	IC50 (µg/mL); Inhibition of native IL-17A mediated IL-6 production by NHDF; Experiment 2 [10] [µg/mL]	IC50 (µg/mL); Inhibition of native IL-17A mediated IL-6 production by NHDF; Experiment 3 [10] [µg/mL]	Binder	also measured
0.0349	0.473	0.117	0.317	0.0248	0.0207	0.0327	0.0236	0.714	0.243	0.99	0.0254	0.0336	0.0242	mAb 4782 (parental anti-IL-17A antibody, IgG1, F405L) (antibody) heavy: not shown light: QSVLTQPPSVSVAPGQTARISCSGDNLGDKYANWYQQKPGQAPVLVIYDDIDRPSGIPERFSGSNSGNTATLTISGTQAEDEADYYCGSYDFFLGMIVFGGGTKLTVLGQPKAAPSVTLFPPSSEELQANKATLVCLISDFYPGAVTVAWKADSSPVKAGVETTTPSKQSNNKYAASSYLSLTPEQWKSHRSYSCQVTHEGSTVEKTVAPTECS	IC50 (µg/mL); Inhibition of cyno IL-17A mediated GROα production by NHDF; Experiment 1 (cynomolgus IL-17A [1]): 0.0235 µg/mL; IC50 (µg/mL); Inhibition of cyno IL-17A mediated GROα production by NHDF; Experiment 2 (cynomolgus IL-17A [1]): 0.0466 µg/mL; IC50 [2]: 0.0403 µg/mL; IC50 (µg/mL); Inhibition of cyno IL-17A mediated IL-6 production by NHDF; Experiment 2 (cynomolgus IL-17A [4]): 0.0437 µg/mL; IC50 [5]: 0.0426 µg/mL; IC50 [6]: 0.076 µg/mL; IC50 (nM); Inhibition of rhTNF-α and IL-17 induced IL-6 secretion from RA-FLSs; Donor 1 (ST1320) [9]: 0.34 nM; IC50 (nM); Inhibition of rhTNF-α and IL-17 induced IL-6 secretion from RA-FLSs; Donor 2 (ST1349) [9]: 0.22 nM; IC50 (nM); Inhibition of rhTNF-α and IL-17 induced IL-6 secretion from RA-FLSs; Donor 3 (ST1359) [9]: 0.25 nM; IC50 (nM); Inhibition of rhTNF-α and IL-17A induced GROα secretion from RA-FLSs from three donors; Donor 1 (ST1320) [11]: 0.25 nM; IC50 (nM); Inhibition of rhTNF-α and IL-17A induced GROα secretion from RA-FLSs from three donors; Donor 2 (ST1349) [11]: 0.12 nM; IC50 (nM); Inhibition of rhTNF-α and IL-17A induced GROα secretion from RA-FLSs from three donors; Donor 3 (ST1359) [11]: 0.14 nM
0.0271	0.725	0.393	0.403	0.0326	0.0198	0.0265	0.0215	0.344	0.269	0.545	0.0214	0.0242	0.0232	mAb 7206 (parental anti-IL-17A antibody, IgG1, YTE) (antibody) heavy: QVQLLESGGGLVQPGGSLRLSCAASGFTFSSYAMSWVRQAPGKGLEWVSTISLTSGFTYYADSVKGRFTISRDNSKNTLYLQMNSLRAEDTAVYYCARQLTLDVWGQGTLVTVSSASTKGPSVFPLAPSSKSTSGGTAALGCLVKDYFPEPVTVSWNSGALTSGVHTFPAVLQSSGLYSLSSVVTVPSSSLGTQTYICNVNHKPSNTKVDKKVEPKSCDKTHTCPPCPAPELLGGPSVFLFPPKPKDTLYITREPEVTCVVVDVSHEDPEVKFNWYVDGVEVHNAKTKPREEQYNSTYRVVSVLTVLHQDWLNGKEYKCKVSNKALPAPIEKTISKAKGQPREPQVYTLPPSREEMTKNQVSLTCLVKGFYPSDIAVEWESNGQPENNYKTTPPVLDSDGSFLLYSKLTVDKSRWQQGNVFSCSVMHEALHNHYTQKSLSLSPGK light: QSVLTQPPSVSVAPGQTARISCSGDNLGDKYANWYQQKPGQAPVLVIYDDIDRPSGIPERFSGSNSGNTATLTISGTQAEDEADYYCGSYDFFLGMIVFGGGTKLTVLGQPKAAPSVTLFPPSSEELQANKATLVCLISDFYPGAVTVAWKADSSPVKAGVETTTPSKQSNNKYAASSYLSLTPEQWKSHRSYSCQVTHEGSTVEKTVAPTECS	IC50 [12]: 0.0717 µg/mL; IC50 [13]: 0.041 µg/mL; IC50 [14]: 0.0307 µg/mL
